According to publication PMC4806292, “Structural insights and in vitro reconstitution of membrane targeting and activation of human PI4KB by the ACBD3 protein” (Scientific Reports, 2016):
Changes are numbered by the printed parent chain. Names may count otherwise.

B1: PI4KB, untagged (residues 423-522 removed) (enzyme, human, UniProt Q9UBF8 1-816, looked up)
chain: MGDTVVEPAPLKPTSEPTSGPPGNNGGSLLSVITEGVGELSVIDPEVAQKACQEVLEKVKLLHGGVAVSSRGTPLELVNGDGVDSEIRCLDDPPAQIREEEDEMGAAVASGTAKGARRRRQNNSAKQSWLLRLFESKLFDISMAISYLYNSKEPGVQAYIGNRLFCFRNEDVDFYLPQLLNMYIHMDEDVGDAIKPYIVHRCRQSINFSLQCALLLGAYSSDMHISTQRHSRGTKLRKLILSDELKPAHRKRELPSLSPAPDTGLSPSKRTHQRSKSDATASISLSSNLKRTASNPKVENEDEELSSSTESIDNSFSSPVRLAPEREFIKSLMAIGKRLATLPTKEQKTQRLISELSLLNHKLPARVWLPTAGFDHHVVRVPHTQAVVLNSKDKAPYLIYVEVLECENFDTTSVPARIPENRRDPEDPSAVALKEPWQEKVRRIREGSPYGHLPNWRLLSVIVKCGDDLRQELLAFQVLKQLQSIWEQERVPLWIKPYKILVISADSGMIEPVVNAVSIHQVKKQSQLSLLDYFLQEHGSYTTEAFLSAQRNFVQSCAGYCLVCYLLQVKDRHNGNILLDAEGHIIHIDFGFILSSSPRNLGFETSAFKLTTEFVDVMGGLDGDMFNYYKMLMLQGLIAARKHMDKVVQIVEIMQQGSQLPCFHGSSTIRNLKERFHMSMTEEQLQLLVEQMVDGSMRSITTKLYDGFQYLTNGIM
notes: Phosphatidylinositol 4-kinase beta (PI4KB), human, UniProtKB entry Q9UBF8 isoform 1, with the intrinsically disordered region 423-522 removed; Called untagged in the pull-downs; the AUC mass of about 80 kDa fits the deleted form; also called PI4K IIIβ; untagged full-length PI4KB; source: E. coli BL21 Star, purified (Ni-NTA, TEV, SEC); not shown: His6, N-terminal, cleaved; GB1, N-terminal, cleaved
B2: Acyl-coenzyme A binding domain containing protein 3 (ACBD3), full length, untagged (natural protein, human, UniProt Q9H3P7 1-528, looked up)
chain: MAAVLNAERLEVSVDGLTLSPDPEERPGAEGAPLLPPPLPPPSPPGSGRGPGASGEQPEPGEAAAGGAAEEARRLEQRWGFGLEELYGLALRFFKEKDGKAFHPTYEEKLKLVALHKQVLMGPYNPDTCPEVGFFDVLGNDRRREWAALGNMSKEDAMVEFVKLLNRCCHLFSTYVASHKIEKEEQEKKRKEEEERRRREEEERERLQKEEEKRRREEEERLRREEEERRRIEEERLRLEQQKQQIMAALNSQTAVQFQQYAAQQYPGNYEQQQILIRQLQEQHYQQYMQQLYQVQLAQQQAALQKQQEVVVAGSSLPTSSKVNATVPSNMMSVNGQAKTHTDSSEKELEPEAAEEALENGPKESLPVIAAPSMWTRPQIKDFKEKIQQDADSVITVGRGEVVTVRVPTHEEGSYLFWEFATDNYDIGFGVYFEWTDSPNTAVSVHVSESSDDDEEEEENIGCEEKAKKNANKPLLDEIVPVYRRDCHEEVYAGSHQYPGRGVYLLKFDNSYSLWRSKSVYYRVYYTR
notes: ACBD3, human, UniProtKB entry Q9H3P7, full length; Called untagged in the pull-downs; also called GCP60; PAP7; source: E. coli BL21 Star, purified (Ni-NTA, TEV, SEC); not shown: His6, N-terminal, cleaved; GB1, N-terminal, cleaved
B3: ACBD3 Y266A mutant, untagged (natural protein, human, UniProt Q9H3P7 1-528, looked up)
chain: B2 chain with Y266A
notes: ACBD3, human, UniProtKB Q9H3P7, point mutant; source: E. coli BL21 Star, purified (Ni-NTA, TEV, SEC); not shown: His6, N-terminal, cleaved; GB1, N-terminal, cleaved
B4: N-terminal His6GB1-tagged PI4KB N-terminal region (residues 1-68) (domain or fragment, human, UniProt Q9UBF8 1-68, looked up)
chain: MGDTVVEPAPLKPTSEPTSGPPGNNGGSLLSVITEGVGELSVIDPEVAQKACQEVLEKVKLLHGGVAV
notes: PI4KB N-terminal region preceding the helical domain, human, UniProtKB Q9UBF8 isoform 1, residues 1-68; also called N-terminal region of PI4KB; source: E. coli BL21 Star, purified (Ni-NTA, SEC); not shown: His6, N-terminal, kept; GB1, N-terminal, kept
B5: N-terminal His6GB1-tagged ACBD3 Q domain (residues 241-308) (domain or fragment, human, UniProt Q9H3P7 241-308, looked up)
chain: QQKQQIMAALNSQTAVQFQQYAAQQYPGNYEQQQILIRQLQEQHYQQYMQQLYQVQLAQQQAALQKQQ
notes: ACBD3 Q domain (glutamine rich region), human, UniProtKB Q9H3P7, residues 241-308; also called Q domain of ACBD3; source: E. coli BL21 Star, purified (Ni-NTA, SEC); not shown: His6, N-terminal, kept; GB1, N-terminal, kept

Key:
Conditions in all cases: both partners purified
[1] = target: B2; assay: AUC; sedimentation velocity, full-length proteins alone and as complex, 5 μM (both proteins); 10 mM Tris pH 8, 200 mM NaCl, 3 mM β-mercaptoethanol, 20 °C, 48000 rpm; c(s) model
[2] = target: B1; assay: SPR; legend: PI4KB binding to immobilized ACBD3; methods: PI4KB chip-immobilized, ACBD3 injected in a series of concentrations for 3 min, dissociation 5 min; single-exponential model
[3] = target: T1, His6GB1-tagged PI4KB V42A mutant (human, UniProt Q9UBF8 1-816, V42A | residues 423–522 removed); assay: pull-down; Ni-NTA sepharose beads, one partner with N-terminal His6GB1 tag immobilised, both partners 1 μM in 200 μL 30 mM Tris pH 8, 200 mM NaCl, 10 mM imidazole, 1 mM TCEP; 30 min at 4 °C; SDS gels stained with Coomassie Blue
T1 construct: PI4KB, human, UniProtKB Q9UBF8 isoform 1, residues 423-522 removed, point mutant; source: E. coli BL21 Star, purified (Ni-NTA, SEC); not shown: His6, N-terminal, kept; GB1, N-terminal, kept

[4] = target: T2, His6GB1-tagged PI4KB V47A mutant (human, UniProt Q9UBF8 1-816, V47A | residues 423–522 removed); assay: as above
T2 construct: PI4KB, human, UniProtKB Q9UBF8 isoform 1, residues 423-522 removed, point mutant; source: E. coli BL21 Star, purified (Ni-NTA, SEC); not shown: His6, N-terminal, kept; GB1, N-terminal, kept

[5] = target: T3, N-terminal His6GB1-tagged PI4KB (residues 423-522 removed) (human, UniProt Q9UBF8 1-816, residues 423–522 removed); assay: as above
T3 construct: Phosphatidylinositol 4-kinase beta (PI4KB), human, UniProtKB entry Q9UBF8 isoform 1, with the intrinsically disordered region 423-522 removed; also called PI4K IIIβ; His6-tagged wild type PI4KB; source: E. coli BL21 Star, purified (Ni-NTA, SEC); not shown: His6, N-terminal, kept; GB1, N-terminal, kept

[6] = target: B2; assay: as above
[7] = target: B1; assay: as above

Binder: B1
stoichiometry N [1]: 1

Binder: B2
Kd [2]: 320 nM
binding result [3]: binds
binding result [4]: binds

Binder: B3
binding result [5]: binds

Binder: B4
binding result [6]: binds

Binder: B5
binding result [7]: binds
